In publication PMC6379680, “The Leishmania PABP1–eIF4E4 interface: a novel 5′–3′ interaction architecture for trans-spliced mRNAs” (Nucleic Acids Research, 2018):
Positions count from the first letter of the chain named. Names may count otherwise. Ends that are not written are not given here.

Columns and labels:
[1] = molecular target: eIF4G (Saccharomyces cerevisiae) (UniProt P39935); details: cited from earlier work
[2] = molecular target: full-length Leishmania eIF4G3 (Leishmania major) (UniProt Q4QEK5); test: fluorescence polarisation; fluorescence anisotropy, PTI QuantaMaster; Alexa-647-labelled eIF4G3, eIF4E4(v)::PABP1(J) added
[3] = molecular target: eIF4E4(iv), an approximately 5 kDa region of the extended N-terminal domain of Leishmania major eIF4E4 (Leishmania major); test: MST; labelled eIF4E4(iv) held constant, non-labelled PABP1 section varied (16 tubes); Nanotemper Monolith NT.115
eIF4E4(v):PABP1(J) = test: Fluorescence anisotropy, Alexa-647-labelled eIF4G3 binding to the complex eIF4E4(v):PABP1(J); parameters: species or system Leishmania; details: Alexa-647-labelled eIF4G3, eIF4E4(v)::PABP1(J) added, read-out: KD (average of calculated KD values)
Procedure: (§1) Microscale thermophoresis experiments were performed using eIF4E4(iv) or eIF4G3 labelled with a fluorescent tag (Monolith Protein Labeling Kit Red-Maleimide), or the eIF4G3 peptide […] labeled with fluorescein-5-isothiocyanate. The concentration of the fluorescently labelled protein (eIF4E4(iv)) was held constant, while the concentration of non-labelled ligand protein was varied. The experiment was conducted by preparing 16 tubes with various ratios of the interacting labelled/non-labelled proteins. The solutions were introduced into capillaries, which were then loaded into a Nanotemper Monolith NT.115 instrument for measurement. For the SPR experiments, eIF4E4(iv) was immobilized via amine coupling to a Biacore CM5 sensor chip (GE Healthcare Life Sciences) and titrations against PABP1(J) were performed in a Biacore T200 instrument. In order to maximise confidence in the calculated dissociation constant values (based on kON and kOFF values), two types of model were fitted to the raw data: a homogeneous 1:1 binding model, and a heterogeneous 1:1 two-ligand model. […] Fluorescence anisotropy measurements were performed using a PTI QuantaMaster fluorimeter. […]
(§2) Figure 5. Quantitative characterization of interactions of Leishmania cap-complex proteins. […] Fluorescence anisotropy measurements (C) detected binding of Alexa-647-labelled eIF4G3 to the complex eIF4E4(v):PABP1(J). […]

PABP1 = test: Microscale thermophoresis, Alexa-647-labelled eIF4G3 with PABP1; type: binding, Leishmania; details: Alexa-647-labelled eIF4G3 and PABP1
Procedure: as §1, §2

[4] = molecular target: T1, PABP1(J), the PABC domain of Leishmania major PABP1 prepared as segment J (Leishmania major, UniProt E9AFX7 482-560); test: MST; FITC-labelled synthetic 14mer peptides with PABP1(J); details: both partners purified
T1 construct: 15N,13C-labelled form used in NMR; also called PABP1 PABC domain; PABC1; source: E. coli NiCo21(DE3), synthetic reading frame, purified (cobalt IDA resin, gel filtration); also co-expressed with eIF4E4(v) from a dual expression plasmid
T1 sequence: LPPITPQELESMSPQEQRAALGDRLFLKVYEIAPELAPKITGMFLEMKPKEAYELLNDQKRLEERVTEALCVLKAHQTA

[5] = molecular target: T1, PABP1(J), the PABC domain of Leishmania …; test: MST; labelled eIF4E4(iv) held constant, non-labelled PABP1 section varied (16 tubes); Nanotemper Monolith NT.115; details: both partners purified
[6] = molecular target: Leishmania major eIF4E4 segment (iv) (Leishmania major); test: SPR; eIF4E4(iv) immobilised by amine coupling on a Biacore CM5 chip, PABP1(J) passed over, Biacore T200; homogeneous 1:1 binding model
eIF4E4(iv) = test: Microscale thermophoresis of mutated PABP1(J) F525A with eIF4E4(iv); type: binding, Leishmania major
Procedure: as §1, with “For the SPR experiments, eIF4E4(iv) was immobilized via amine coupling to a Biacore CM5 sensor chip (GE Healthcare Life Sciences) and titrations against PABP1(J) were performed in a Biacore T200 instrument.” left out
We wanted to establish a quantitative understanding of the relative significance of interactions between the Leishmania cap-binding complex factors eIF4E4, eIF4G3 and PABP1 using protein domains or full-length proteins, rather than peptides. […]

Sequence of eIF4G (Saccharomyces cerevisiae) (P39935 whole entry): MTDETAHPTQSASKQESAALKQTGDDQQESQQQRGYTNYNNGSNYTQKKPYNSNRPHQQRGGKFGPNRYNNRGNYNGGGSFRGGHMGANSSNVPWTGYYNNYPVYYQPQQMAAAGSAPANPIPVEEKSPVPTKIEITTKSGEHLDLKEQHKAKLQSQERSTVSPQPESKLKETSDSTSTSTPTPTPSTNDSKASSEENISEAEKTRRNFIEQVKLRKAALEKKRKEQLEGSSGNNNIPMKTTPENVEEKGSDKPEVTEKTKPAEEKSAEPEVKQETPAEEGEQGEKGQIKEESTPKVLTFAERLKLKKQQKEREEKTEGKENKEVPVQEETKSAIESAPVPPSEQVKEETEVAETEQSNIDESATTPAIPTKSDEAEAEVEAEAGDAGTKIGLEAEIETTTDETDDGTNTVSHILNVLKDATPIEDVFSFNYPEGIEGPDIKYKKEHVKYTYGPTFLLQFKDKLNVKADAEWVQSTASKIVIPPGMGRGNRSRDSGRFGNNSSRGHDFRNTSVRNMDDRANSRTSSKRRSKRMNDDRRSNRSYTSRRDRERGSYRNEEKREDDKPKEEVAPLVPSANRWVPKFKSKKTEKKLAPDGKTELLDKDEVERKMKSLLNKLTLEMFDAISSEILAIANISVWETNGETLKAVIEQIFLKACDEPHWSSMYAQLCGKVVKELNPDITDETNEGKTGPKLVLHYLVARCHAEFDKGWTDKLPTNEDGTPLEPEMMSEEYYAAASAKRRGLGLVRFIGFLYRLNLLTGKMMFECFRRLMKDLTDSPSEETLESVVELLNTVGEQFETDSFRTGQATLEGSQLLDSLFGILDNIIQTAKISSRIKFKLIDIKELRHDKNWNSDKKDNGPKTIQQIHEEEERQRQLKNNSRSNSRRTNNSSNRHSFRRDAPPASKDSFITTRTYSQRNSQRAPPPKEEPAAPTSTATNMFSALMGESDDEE

eIF4E (from UniProt P07260)
Kd [1]: 2.3 nM

heterodimeric complex eIF4E4(v):PABP1(J) (from UniProt E9AFX7 482-560)
Kd [2]: 340 nM

PABP1(J) F525A (from UniProt E9AFX7) (domain or fragment)
Kd [3]: 550 nM

B1: eIF4G3: full-length Leishmania eIF4G3, Alexa-647-labelled (protein)
chain: MQFTVEQIRSVRNNYLEPPYPGFSLDEVVRRRRLTQTKLVRGENAWVAKGTAQTTEEWVQRLLHGTLNKLTEENKDIMIDKLLTKELFATEDIMNMVVNIIFKKALDEPENSKLYAGVCHSLALYEAKVLRDGHKGERPQSQLRDAIISTAQHEFRTLSKELSKMEDKSEEELEYERSNVMRRKRSNMRFIGELYLCTALTHSTMFTVMDLTMRCSDKTGFPSSENIELLAALLNTIGDRLDKNHKKTLDPYFTSLENFNKKSDCPYPPRIRFKIMDLLDLRKRGWGLKPKPVKAALPPSHGKDKKYATAPPPKKGGRDQGSAAAASKSWRDAATTKTGTAAAPAPSADKGLNGRGTSSAAPAANTAALSSSAASTAAATAPAGASFRDEASPQVPLVKFELRVASMFQEWVADRTNDVILHWVDQFNTCDRFFESESELCVAVAQEVIHSACTTTRKDAQREAFSFLVVGLYMIDTEVFDGFASALASAIEDGLLEDVPKFGERFMSMLRLTSTEQETRADVYFDAANVLRLTYNRLESPDDSAVDTLMSFWDRVPLPSTDEENMIRMDLDVVYSLCNPEGVQDGLEKLLSRIIHSMLQMQLMDAEVLDEFLCLDVEDGLCAKVIADYKERFPK
modifications: Alexa 647 label (Monolith Protein Labeling Kit Red-Maleimide) in the fluorescence anisotropy and MST experiments; left off: His12, end not stated, kept
notes: full-length Leishmania eIF4G3, Alexa-647-labelled
Kd (eIF4E4(v):PABP1(J)): 340 nM
binding (PABP1): no binding could be detected

B2: eIF4E4 PAM2-motif FITC-labelled 14mer peptide, N143A (peptide)
peptide: HHMNPAATEFMPGR
modifications: also: FITC label
notes: source: synthetic peptide (Thermo Fisher Scientific, HPLC-purified to 98%)
Kd [4]: 69.2 ± 4.9 nM

B3: eIF4E4(iv), an approximately 5 kDa region of the extended N-terminal domain of Leishmania major eIF4E4 (domain or fragment)
chain: PTRFSPATVPRHHMNPNATEFMPGRRNGPDGGLEALPTSTAD
modifications: also: Alexa 647 label (Red-Maleimide) for MST
Kd [5]: 22 nM

B4: eIF4E4 PAM2-motif FITC-labelled 14mer peptide, E146A (peptide)
peptide: HHMNPNATAFMPGR
modifications: also: FITC label
notes: as for B2
Kd [4]: 163 ± 16.4 nM

B5: eIF4E4 PAM2-motif FITC-labelled 14mer peptide, M140A (peptide)
peptide: HHANPNATEFMPGR
modifications: also: FITC label
notes: as for B2
Kd [4]: 34.3 ± 1.3 nM

B6: eIF4E4 PAM2-motif FITC-labelled 14mer peptide, F147A (peptide)
peptide: HHMNPNATEAMPGR
modifications: also: FITC label
notes: also called F147A mutant peptide; source: synthetic peptide (Thermo Fisher Scientific, HPLC-purified to 98%)
Kd [4]: 127 ± 13.4 nM

B7: eIF4E4 PAM2-motif FITC-labelled 14mer peptide, M148A (peptide)
peptide: HHMNPNATEFAPGR
modifications: also: FITC label
notes: as for B2
Kd [4]: 62.8 ± 3.1 nM

B8: Leishmania major PABP1 segment J (PABC domain) (domain or fragment)
chain: T1 sequence
modifications: here or on the partner: 13C,15N-labelled in the NMR experiment
Kd [6]: 160 nM

B9: PABP1(J) F525A: PABC domain of Leishmania PABP1 (segment J) with phenylalanine 525 mutated to alanine (protein)
chain: T1 sequence with F44A
Kd (eIF4E4(iv); eIF4E4(iv) + PABP1(J) F525A, average of three independent titrations): 550 nM
KD relative to the non-mutated PABP1(J) value (eIF4E4(iv); ratio of KD values): 25 times

B10: eIF4E4 PAM2-motif FITC-labelled 14mer peptide, WT (peptide)
peptide: HHMNPNATEFMPGR
modifications: also: FITC label
notes: also called 'wild-type' peptide; 14mer eIF4E4 peptide; source: synthetic peptide (Thermo Fisher Scientific, HPLC-purified to 98%)
Kd [4]: 33 ± 0.9 nM
